# Measurements taken from US20200079833A1 (AstraZeneca / MedImmune, published 2020).
# Starred links: 1 amine or outer side, 2 acyl side, 3 side chain; linkers in the order of their positions; H or OH if unused. Non-standard residues stand in square brackets, D forms with d. Groups on a side chain read outwards from the residue. Primed or numbered codes have the meaning given here. No end group written: not given here. *: point of attachment. γGlu = O=C(O)[C@H](CCC(=O)[*:2])N[*:1]; αMeF = C[C@](N)(Cc1ccccc1)C(=O)O; αMeK = C[C@](N)(CCCCN)C(=O)O; Lauroyl = CCCCCCCCCCCC(=O)*; αMeS = C[C@](N)(CO)C(=O)O; PEG2′ = not defined here; Aib = CC(C)(N)C(=O)O
# T1: glucose-dependent insulinotropic peptide (gastric inhibitory polypeptide) receptor (GIPR), primary cAMP assay … (human, UniProt P48546 22-466)
# T1 sequence (looked up): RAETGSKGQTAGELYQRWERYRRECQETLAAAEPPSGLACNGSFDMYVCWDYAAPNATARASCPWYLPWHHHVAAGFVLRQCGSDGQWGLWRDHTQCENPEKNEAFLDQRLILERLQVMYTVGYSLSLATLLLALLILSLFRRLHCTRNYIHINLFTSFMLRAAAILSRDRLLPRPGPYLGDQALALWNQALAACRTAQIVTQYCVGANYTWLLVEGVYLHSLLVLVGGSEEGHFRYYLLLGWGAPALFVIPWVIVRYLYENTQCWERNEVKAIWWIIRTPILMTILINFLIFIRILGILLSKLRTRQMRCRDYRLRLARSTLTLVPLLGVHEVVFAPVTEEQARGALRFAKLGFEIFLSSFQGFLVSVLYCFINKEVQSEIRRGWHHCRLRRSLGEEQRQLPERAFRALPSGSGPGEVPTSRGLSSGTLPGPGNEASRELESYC
# T2: glucose-dependent insulinotropic peptide (gastric inhibitory polypeptide) receptor (human, UniProt P48546 22-466)
# T2 sequence (looked up): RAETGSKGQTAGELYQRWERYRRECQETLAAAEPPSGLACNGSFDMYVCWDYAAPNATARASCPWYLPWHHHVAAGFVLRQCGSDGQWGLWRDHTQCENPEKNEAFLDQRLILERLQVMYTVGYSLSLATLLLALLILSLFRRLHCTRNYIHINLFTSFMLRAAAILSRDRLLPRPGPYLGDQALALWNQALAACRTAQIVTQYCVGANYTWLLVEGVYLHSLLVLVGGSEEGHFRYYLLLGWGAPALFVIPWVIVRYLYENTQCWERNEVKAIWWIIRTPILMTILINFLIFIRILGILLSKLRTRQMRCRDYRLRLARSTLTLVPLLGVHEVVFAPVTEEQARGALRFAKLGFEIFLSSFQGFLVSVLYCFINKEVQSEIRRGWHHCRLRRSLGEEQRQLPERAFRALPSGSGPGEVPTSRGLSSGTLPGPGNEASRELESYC
# Experiments:
# Experiment in all cases: cell-based or functional assay
# [1] = molecular target: glucagon receptor (GCGR), primary cAMP assay cell line (human, UniProt P47871 26-477)
# [2] = molecular target: T1, glucose-dependent insulinotropic …
# [3] = molecular target: GLP-1 receptor (GLP-1R), primary cAMP assay cell line (human, UniProt P43220 24-463)
# GLP-1 receptor = GLP-1 receptor (human, UniProt P43220 24-463)
# glucagon receptor = glucagon receptor (human, UniProt P47871 26-477)
# [4] = molecular target: T2, glucose-dependent insulinotropic …
# Chain of glucagon receptor (GCGR), primary cAMP assay cell line (P47871 26-477): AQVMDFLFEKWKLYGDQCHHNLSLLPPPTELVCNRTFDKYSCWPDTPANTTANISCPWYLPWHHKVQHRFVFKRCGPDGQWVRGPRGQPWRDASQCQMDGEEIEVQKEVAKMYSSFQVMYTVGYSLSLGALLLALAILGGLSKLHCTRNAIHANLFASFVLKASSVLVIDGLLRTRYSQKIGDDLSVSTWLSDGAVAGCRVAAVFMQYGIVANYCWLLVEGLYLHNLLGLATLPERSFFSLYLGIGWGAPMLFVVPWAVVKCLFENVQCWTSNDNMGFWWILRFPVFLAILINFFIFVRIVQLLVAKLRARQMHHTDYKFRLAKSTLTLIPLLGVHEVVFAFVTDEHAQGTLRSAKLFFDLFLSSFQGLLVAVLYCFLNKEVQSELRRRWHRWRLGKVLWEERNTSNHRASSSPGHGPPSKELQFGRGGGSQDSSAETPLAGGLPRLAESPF
# Chain of glucagon receptor (P47871 26-477): as above
Binder,"cAMP Primary assay EC50, n1 [1]","cAMP Primary assay EC50, n2 [1]","cAMP Primary assay EC50, n1 [2]","cAMP Primary assay EC50, n2 [2]","cAMP Primary assay EC50, Mean pM GLP-1R [3]","cAMP Primary assay EC50, n1 [3]","cAMP Primary assay EC50, n2 [3]","Primary assay EC50 (cAMP), Mean pM GLP-1R (GLP-1 receptor)","Primary assay EC50 (cAMP), n1 (GLP-1 receptor)","Primary assay EC50 (cAMP), n2 (GLP-1 receptor)","Primary assay EC50 (cAMP), n1 (glucagon receptor)","Primary assay EC50 (cAMP), n2 (glucagon receptor)","Primary assay EC50 (cAMP), n1 [4]","Primary assay EC50 (cAMP), n2 [4]"
H[Aib]EGS[αMeF]TSDK([PEG2′-PEG2′-γGlu-Lauroyl])SSYLEK([PEG2′-PEG2′-γGlu-Lauroyl])EAA[αMeK]EFIK([PEG2′-PEG2′-γGlu-Lauroyl])FVVEGG-NH2 [SEQ ID NO: 439],19.5 nM,19.5 nM,19.5 nM,19.5 nM,97 pM,0.0599 nM,0.134 nM,,,,,,,
H[Aib]EGS[αMeF]TSDK([PEG2′-PEG2′-γGlu-Lauroyl])SSYLEGK([PEG2′-PEG2′-γGlu-Lauroyl])AA[αMeK]EFIK([PEG2′-PEG2′-γGlu-Lauroyl])FVVEGG-NH2 [SEQ ID NO: 440],19.7 nM,19.7 nM,19.7 nM,19.7 nM,130 pM,0.0967 nM,0.164 nM,,,,,,,
H[Aib]EGS[αMeF]TSDK([PEG2′-PEG2′-γGlu-Lauroyl])SSYLEGEK([PEG2′-PEG2′-γGlu-Lauroyl])A[αMeK]EFIK([PEG2′-PEG2′-γGlu-Lauroyl])FVVEGG-NH2 [SEQ ID NO: 441],19.5 nM,19.5 nM,19.5 nM,19.5 nM,176 pM,0.11 nM,0.241 nM,,,,,,,
H[Aib]EGS[αMeF]TSDK([PEG2′-PEG2′-γGlu-Lauroyl])SSYLEGEAA[αMeK]K([PEG2′-PEG2′-γGlu-Lauroyl])FIK([PEG2′-PEG2′-γGlu-Lauroyl])FVVEGG-NH2 [SEQ ID NO: 442],19.7 nM,19.7 nM,19.7 nM,19.7 nM,82 pM,0.0609 nM,0.103 nM,,,,,,,
H[Aib]EGS[αMeF]TSDVSK([PEG2′-PEG2′-γGlu-Lauroyl])YLEK([PEG2′-PEG2′-γGlu-Lauroyl])EAA[αMeK]EFIK([PEG2′-PEG2′-γGlu-Lauroyl])FVVEGG-NH2 [SEQ ID NO: 443],19.4 nM,19.4 nM,19.4 nM,19.4 nM,223 pM,0.192 nM,0.254 nM,,,,,,,
H[Aib]EGS[αMeF]TSDVSK([PEG2′-PEG2′-γGlu-Lauroyl])YLEGK([PEG2′-PEG2′-γGlu-Lauroyl])AA[αMeK]EFIK([PEG2′-PEG2′-γGlu-Lauroyl])FVVEGG-NH2 [SEQ ID NO: 444],19.7 nM,19.7 nM,19.7 nM,19.7 nM,144 pM,0.125 nM,0.162 nM,,,,,,,
H[Aib]QGS[αMeF]TSD[αMeF]SK[αMeF]LDSRRAQD[αMeF]VQ[αMeF]LMNT-NH2 (N-terminus assumed; SMILES CSCC[C@H](NC(=O)[C@H](CC(C)C)NC(=O)[C@](C)(Cc1ccccc1)NC(=O)[C@H](CCC(N)=O)NC(=O)[C@@H](NC(=O)[C@](C)(Cc1ccccc1)NC(=O)[C@H](CC(=O)O)NC(=O)[C@H](CCC(N)=O)NC(=O)[C@H](C)NC(=O)[C@H](CCCNC(=N)N)NC(=O)[C@H](CCCNC(=N)N)NC(=O)[C@H](CO)NC(=O)[C@H](CC(=O)O)NC(=O)[C@H](CC(C)C)NC(=O)[C@](C)(Cc1ccccc1)NC(=O)[C@H](CCCCN)NC(=O)[C@H](CO)NC(=O)[C@](C)(Cc1ccccc1)NC(=O)[C@H](CC(=O)O)NC(=O)[C@H](CO)NC(=O)[C@@H](NC(=O)[C@](C)(Cc1ccccc1)NC(=O)[C@H](CO)NC(=O)CNC(=O)[C@H](CCC(N)=O)NC(=O)C(C)(C)NC(=O)[C@@H](N)Cc1c[nH]cn1)[C@@H](C)O)C(C)C)C(=O)N[C@@H](CC(N)=O)C(=O)N[C@H](C(N)=O)[C@@H](C)O) [SEQ ID NO 14],,,,,,,,2440 pM,3.1 nM,1.8 nM,3 nM,1.1 nM,15 nM,19 nM
Y[Aib]EGS[αMeF]ISD[αMeF]SIAMDKIHQQD[αMeF]VN[αMeF]LLAQK-NH2 (N-terminus assumed; SMILES CC[C@H](C)[C@H](NC(=O)[C@H](CO)NC(=O)[C@](C)(Cc1ccccc1)NC(=O)[C@H](CC(=O)O)NC(=O)[C@H](CO)NC(=O)[C@@H](NC(=O)[C@](C)(Cc1ccccc1)NC(=O)[C@H](CO)NC(=O)CNC(=O)[C@H](CCC(=O)O)NC(=O)C(C)(C)NC(=O)[C@@H](N)Cc1ccc(O)cc1)[C@@H](C)CC)C(=O)N[C@@H](C)C(=O)N[C@@H](CCSC)C(=O)N[C@@H](CC(=O)O)C(=O)N[C@@H](CCCCN)C(=O)N[C@H](C(=O)N[C@@H](Cc1c[nH]cn1)C(=O)N[C@@H](CCC(N)=O)C(=O)N[C@@H](CCC(N)=O)C(=O)N[C@@H](CC(=O)O)C(=O)N[C@@](C)(Cc1ccccc1)C(=O)N[C@H](C(=O)N[C@@H](CC(N)=O)C(=O)N[C@@](C)(Cc1ccccc1)C(=O)N[C@@H](CC(C)C)C(=O)N[C@@H](CC(C)C)C(=O)N[C@@H](C)C(=O)N[C@@H](CCC(N)=O)C(=O)N[C@@H](CCCCN)C(N)=O)C(C)C)[C@@H](C)CC) [SEQ ID NO 15],,,,,,,,119000 pM,120 nM,120 nM,120 nM,120 nM,0.16 nM,0.079 nM
H[Aib]EGS[αMeF]T[αMeS]DVSS[αMeF]LEGEAA[αMeK]E[αMeF]IA[αMeF]VV[αMeK]GG-NH2 (N-terminus assumed; SMILES CC[C@H](C)[C@H](NC(=O)[C@](C)(Cc1ccccc1)NC(=O)[C@H](CCC(=O)O)NC(=O)[C@](C)(CCCCN)NC(=O)[C@H](C)NC(=O)[C@H](C)NC(=O)[C@H](CCC(=O)O)NC(=O)CNC(=O)[C@H](CCC(=O)O)NC(=O)[C@H](CC(C)C)NC(=O)[C@](C)(Cc1ccccc1)NC(=O)[C@H](CO)NC(=O)[C@H](CO)NC(=O)[C@@H](NC(=O)[C@H](CC(=O)O)NC(=O)[C@](C)(CO)NC(=O)[C@@H](NC(=O)[C@](C)(Cc1ccccc1)NC(=O)[C@H](CO)NC(=O)CNC(=O)[C@H](CCC(=O)O)NC(=O)C(C)(C)NC(=O)[C@@H](N)Cc1c[nH]cn1)[C@@H](C)O)C(C)C)C(=O)N[C@@H](C)C(=O)N[C@@](C)(Cc1ccccc1)C(=O)N[C@H](C(=O)N[C@H](C(=O)N[C@@](C)(CCCCN)C(=O)NCC(=O)NCC(N)=O)C(C)C)C(C)C) [SEQ ID NO 16],,,,,,,,10100 pM,11 nM,9.4 nM,100 nM,100 nM,100 nM,100 nM
